Experimental findings from patent US20240094221A1, “METHOD FOR PREDICTING THE FERTILITY POTENTIAL OF A FEMALE SUBJECT” (Rigshospitalet, priority 2020, published 2024) are described below.

“Also recorded” adds a separate entry of the source.

The subject of the test is female C57BL/6 mice. Nature of the test: In vivo mice fertility study with RANKL inducer PTH. As to conditions: vs vehicle. From the text:
Twelve (12) female C57BL/6 mice will be allocated to two treatment groups (n=6, n=6) and administered with test article according to table 1. On study day 7, all females of each treatment group+3 male C57BL/6 mice will be allocated to the fertility study. In the fertility study pairs of 2 females will be housed with 1 male for a period of 5 days. During the 5 days all females are observed daily for vaginal plugs at least once per day. Administration of test articles will continue according to table 1 during the fertility study (days 7 to 11). Presence of vaginal plug, apparent pregnancy, and litter size will be recorded for each female. Females and litter will be terminated at the end of the fertility study and the weight of the pups will be determined.
Administration of test article i.p. (group 1) or vehicle i.p. (group 2) will be conducted 2 times a week for a period of 12 days. • Gr.1: 6 mice, i.p. dosing 2 times weekly for 12 days • Gr.2: 6 mice, i.p. dosing 2 times weekly for 12 days
One blood sample will be harvested on study day 12 from all female mice in the study. The blood samples will be drawn by sublingual vein puncture.
Termination: • female mice from the fertility study, will be terminated on nominal study day 12. Twelwe (12) mice will be euthanized after giving birth to litters

B1: PTH: Parathyroidea hormone; well-characterized RANKL inducer (protein, UniProt P01270 32-115, looked up)
Parathyroid hormone: SVSEIQLMHNLGKHLNSMERVEWLRKKLQDVHNFVALGAPLAPRDAGSQRPRKKEDNVLVESHEKSLGEADKADVNVLTKAKSQ
modifications: Parathyroid hormone
notes: Parathyroidea hormone; well-characterized RANKL inducer
With B1, the pregnancy rate result (PTH 5 μg/kg i.p., females paired with WT males, FIG. 14A) was “increased; also recorded: doubled”. Moreover, where the note is “PTH 5 μg/kg i.p., females paired with WT males, FIG. 14B”, the number of pups entry is on record as “increased”. Also, under “PTH 5 μg/kg i.p., females paired with WT males, FIG. 14C”, the “number of pups per female” value is on record as “increased”. Under “short-term PTH 5 μg/kg i.p., healthy female mice, p<0.05, data not shown”, the ovary weight entry is “small but significant effect”.
